Biological target: His-tagged dynamin 2b (dynamin 2-WT, baculovirus) (rat)
Experiment: not stated; polymerization of recombinant (baculovirus) dynamin 2 with or without Bis-T-23; method in Supplementary Figures S2E, F

B1: His-tagged dynamin 2b (dynamin 2-WT, baculovirus) (enzyme)
chain: MGNRGMEELIPLVNKLQDAFSSIGQSCHLDLPQIAVVGGQSAGKSSVLENFVGRDFLPRGSGIVTRRPLILQLIFSKTEYAEFLHCKSKKFTDFDEVRQEIEAETDRVTGTNKGISPVPINLRVYSPHVLNLTLIDLPGITKVPVGDQPPDIEYQIKDMILQFISRESSLILAVTPANMDLANSDALKLAKEVDPQGLRTIGVITKLDLMDEGTDARDVLENKLLPLRRGYIGVVNRSQKDIEGRKDIRAALAAERKFFLSHPAYRHMADRMGTPHLQKTLNQQLTNHIRESLPTLRSKLQSQLLSLEKEVEEYKNFRPDDPTRKTKALLQMVQQFGVDFEKRIEGSGDQVDTLELSGGARINRIFHERFPFELVKMEFDEKDLRREISYAIKNIHGVRTGLFTPDMAFEAIVKKQLVKLKEPSLKCVDLVVSELATVIKKCAEKLSSYPRLREETERIVTTYIREREGRTKDQILLLIDIEQSYINTNHEDFIGFANAQQRSTQLNKKRAIPNQGEILVIRRGWLTINNISLMKGGSKEYWFVLTAESLSWYKDEEEKEKKYMLPLDNLKIRDVEKGFMSNKHVFAIFNTEQRNVYKDLRQIELACDSQEDVDSWKASFLRAGVYPEKDQAENEDGAQENTFSMDPQLERQVETIRNLVDSYVAIINKSIRDLMPKTIMHLMINNTKAFIHHELLAYLYSSADQSSLMEESAEQAQRRDDMLRMYHALKEALNIIGDISTSTVSTPVPPPVDDTWLQNTSSHSPTPQRRPVSSVHPPGRPPAVRGPTPGPPLIPMPVGATSSFSAPPIPSRPGPQNVFANNDPFSAPPQIPSRPARIPPGIPPGVPSRRAPAAPSRPTIIRPAEPSLLD
modifications: not checked
For B1, the fold increase of polymerization with Bis-T-23 against without Bis-T-23 was 30 times.

— article PMC9127447
